Data taken from paper PMC10044410.

How the values were obtained:
[1] = target: FM-CnoX (fluorescein-5-maleimide-labeled CnoX) (E. coli) (UniProt P77395); assay: other fluorescence titration
[2] = target: FM-CnoX (fluorescein-5-maleimide-labeled CnoX) (E. coli) (UniProt P77395); assay: fluorescence polarisation
[3] = target: GroEL (wild type, recombinant, from pET22b-groL) (E. coli) (UniProt P0A6F5); assay: SEC

Row | Kd [1] [nM] | Kd [2] [nM] | stoichiometry N (CnoX per GroEL double ring) [3] | Substance
1 | 350 | 310 | – | GroEL (untagged, from pET15b, for quantitative binding studies) (from UniProt P0A6F5 1-548) (natural protein)
2 | – | – | 1 | CnoX (wild type, recombinant, from pET22b-cnoX) (from UniProt P77395 1-284) (natural protein)
